Target: human FGFR1c/KLB receptor complex on cells (human) (UniProt P11362)
Assay: cell-based or functional assay

human FGFR1c/KLB receptor complex on cells (human), sequence (P11362 other isoform, or with tags, fused parts or gaps limits assumed, chain 1 of 2): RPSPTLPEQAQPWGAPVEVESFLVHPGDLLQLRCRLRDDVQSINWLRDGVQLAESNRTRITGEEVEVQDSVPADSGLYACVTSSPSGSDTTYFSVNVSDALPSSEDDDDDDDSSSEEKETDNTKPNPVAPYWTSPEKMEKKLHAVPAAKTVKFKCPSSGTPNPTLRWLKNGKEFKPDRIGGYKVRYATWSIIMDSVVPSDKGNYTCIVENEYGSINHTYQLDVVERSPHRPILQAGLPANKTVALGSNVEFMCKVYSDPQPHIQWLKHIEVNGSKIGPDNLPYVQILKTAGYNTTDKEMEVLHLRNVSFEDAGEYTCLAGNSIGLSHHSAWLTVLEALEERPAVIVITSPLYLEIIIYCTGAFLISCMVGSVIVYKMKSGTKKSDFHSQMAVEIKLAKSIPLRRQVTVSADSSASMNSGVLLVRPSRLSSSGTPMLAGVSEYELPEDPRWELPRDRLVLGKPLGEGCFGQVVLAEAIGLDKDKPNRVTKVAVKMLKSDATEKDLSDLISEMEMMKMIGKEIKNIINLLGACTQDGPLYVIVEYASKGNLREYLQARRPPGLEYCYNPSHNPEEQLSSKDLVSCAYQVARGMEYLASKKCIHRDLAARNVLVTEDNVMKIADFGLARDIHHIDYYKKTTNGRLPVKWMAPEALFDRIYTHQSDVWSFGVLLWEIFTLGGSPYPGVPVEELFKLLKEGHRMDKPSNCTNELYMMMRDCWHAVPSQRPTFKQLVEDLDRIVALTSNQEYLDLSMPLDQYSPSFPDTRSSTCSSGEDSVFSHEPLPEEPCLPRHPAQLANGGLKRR
human FGFR1c/KLB receptor complex on cells (human), sequence (chain, as listed by the source limits assumed, chain 2 of 2): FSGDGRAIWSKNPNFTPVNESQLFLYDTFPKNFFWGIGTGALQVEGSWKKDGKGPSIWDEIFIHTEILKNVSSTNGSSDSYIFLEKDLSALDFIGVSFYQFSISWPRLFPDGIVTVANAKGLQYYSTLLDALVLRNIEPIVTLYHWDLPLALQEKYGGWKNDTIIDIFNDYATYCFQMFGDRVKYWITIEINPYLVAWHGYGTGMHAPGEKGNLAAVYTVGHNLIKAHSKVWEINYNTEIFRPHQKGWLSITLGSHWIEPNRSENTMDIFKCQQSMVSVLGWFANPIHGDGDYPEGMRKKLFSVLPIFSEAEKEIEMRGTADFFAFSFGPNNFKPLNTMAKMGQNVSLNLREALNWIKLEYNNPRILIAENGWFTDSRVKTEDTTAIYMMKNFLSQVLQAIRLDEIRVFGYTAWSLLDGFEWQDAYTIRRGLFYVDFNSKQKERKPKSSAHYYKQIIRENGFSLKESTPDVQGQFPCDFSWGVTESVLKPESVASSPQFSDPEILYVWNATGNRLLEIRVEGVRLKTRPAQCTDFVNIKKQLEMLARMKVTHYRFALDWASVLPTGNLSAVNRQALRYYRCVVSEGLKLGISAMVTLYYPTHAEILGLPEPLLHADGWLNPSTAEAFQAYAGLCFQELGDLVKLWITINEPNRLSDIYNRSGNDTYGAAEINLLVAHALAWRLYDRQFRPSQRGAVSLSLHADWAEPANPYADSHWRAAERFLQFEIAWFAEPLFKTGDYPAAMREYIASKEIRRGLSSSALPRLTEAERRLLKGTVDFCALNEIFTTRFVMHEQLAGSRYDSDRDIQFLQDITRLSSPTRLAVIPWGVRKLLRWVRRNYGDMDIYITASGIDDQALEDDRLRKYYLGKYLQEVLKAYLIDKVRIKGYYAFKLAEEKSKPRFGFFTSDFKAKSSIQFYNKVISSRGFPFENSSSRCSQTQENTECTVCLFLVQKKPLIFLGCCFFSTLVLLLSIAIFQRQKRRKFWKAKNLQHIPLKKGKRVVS

% Act: 100% | EC50: 2.9 nM | Percent Activity %: 100%
Substance: REGN1438 (6His-FGF21) (from UniProt Q9NSA1 29-209) (ligand)
